Among the data in publication doi:10.1101/2023.04.27.535981, “Development of constrained peptide inhibitors targeting an oncogenic E3 ubiquitin ligase” (bioRxiv, 2023) are Kd values, retold here.

What is called Kd is the free concentration of one partner at which half of the binding sites on the other are occupied at equilibrium, for simple one-to-one binding. A low value points to higher affinity.

The target of the test is T1, Cks1-Skp2-Skp1 complex (GST-Skp2-Skp1-His-Cks1) (human | , UniProt Q13309 1-424; P63208 1-163; P61024 1-79).
T1 construct: Skp2, human; GST-Skp2 fusion from a dicistronic pGEX 4T1 plasmid with Skp1; Skp1, human; second cistron of the pGEX 4T1 GST-Skp2/Skp1 plasmid; Cks1, full length (1-79); The design was based on PDB 2AST, whose constructs may differ; also called Skp1-Skp2-Cks1 complex; Skp2-Skp1-Cks1 complex; source: E. coli C41; GST-Skp2-Skp1 (glutathione Sepharose, SEC) and His-Cks1 (Ni-NTA, SEC) purified, mixed …
T1 sequence (Q13309 whole entry, chain 1 of 3, the tested form may be a part): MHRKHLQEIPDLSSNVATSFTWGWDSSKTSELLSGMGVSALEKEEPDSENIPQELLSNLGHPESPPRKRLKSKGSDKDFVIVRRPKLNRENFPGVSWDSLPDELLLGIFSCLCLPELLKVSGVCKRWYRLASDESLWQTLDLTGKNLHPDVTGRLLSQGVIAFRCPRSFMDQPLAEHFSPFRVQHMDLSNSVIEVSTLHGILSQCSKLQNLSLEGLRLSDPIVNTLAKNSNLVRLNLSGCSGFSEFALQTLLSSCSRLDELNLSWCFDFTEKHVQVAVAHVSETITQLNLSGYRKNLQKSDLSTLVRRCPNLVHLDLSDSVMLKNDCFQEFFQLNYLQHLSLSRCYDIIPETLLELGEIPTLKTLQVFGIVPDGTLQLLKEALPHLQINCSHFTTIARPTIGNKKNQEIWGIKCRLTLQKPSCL
T1 sequence (P63208 whole entry, chain 2 of 3, the tested form may be a part): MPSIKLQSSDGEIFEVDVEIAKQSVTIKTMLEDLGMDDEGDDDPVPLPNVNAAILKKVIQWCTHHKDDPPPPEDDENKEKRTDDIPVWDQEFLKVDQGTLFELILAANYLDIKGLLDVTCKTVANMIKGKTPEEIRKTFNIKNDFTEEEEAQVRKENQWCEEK
T1 sequence (P61024 whole entry, chain 3 of 3, the tested form may be a part): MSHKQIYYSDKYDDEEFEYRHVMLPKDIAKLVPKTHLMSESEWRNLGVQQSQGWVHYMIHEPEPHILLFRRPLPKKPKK
The test can be described thus: fluorescence polarisation; direct FP; protein serially diluted 1:2 (12 points, triplicate) and mixed with 20 nM TAMRA-labelled peptide; SEC buffer (20 mM Tris-HCl pH 7.5, 150 mM NaCl, 1 mM DTT) with 0.01 % Tween-20; 30 min at room temperature. The conditions noted are these: both partners purified. Background: In fluorescence polarisation assays a small probe gives low polarisation when free and higher when bound to something large.

Square brackets hold non-standard residues; d marks the D form. Ends that are not written are not given here. pT = C[C@@H](OP(=O)(O)O)[C@H](N)C(=O)O; Ahx = NCCCCCC(=O)O

B1: TAMRA-labelled 10-residue phosphorylated p27 peptide (TAMRA-Ahx-AGSVEQT(phos)PKK) (peptide)
peptide: {TAMRA-Ahx}-AGSVEQ[pT]PKK
notes: p27, amino acids 181-190; also called TAMRA-labelled p27 peptide; TAMRA-labelled unconstrained p27 peptide; source: synthetic peptide
As to B1, the Kd stood at 2780 ± 190 nM.
